In patent publication US20200079865A1 (Bristol-Myers Squibb, published 2020):

How the values were obtained:
[1] = target: T1, human GITR, membrane bound (on activated human T cells, 3A9-hGITR cells, huGITR knock-in mouse T cells) (human, UniProt Q9Y5U5 26-241); assay: FACS competition on PHA-activated human T cells, pre-bound GITR-L against 0.5 ug/ml 28F3-hIgG1; partial inhibition
T1 construct: also called TNFRSF18
T1 sequence: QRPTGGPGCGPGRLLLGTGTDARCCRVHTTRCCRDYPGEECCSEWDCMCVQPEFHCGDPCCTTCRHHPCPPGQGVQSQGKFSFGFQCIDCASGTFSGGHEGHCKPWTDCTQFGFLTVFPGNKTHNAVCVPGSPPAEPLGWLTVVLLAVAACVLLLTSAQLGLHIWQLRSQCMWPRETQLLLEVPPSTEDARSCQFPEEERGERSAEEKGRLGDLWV
From the text: (§1) The samples were acquired on a FACS Canto Flow Cytometer (BD, San Jose) and analyzed with FlowJo software (Tree Star, Inc, Ashland, Oreg.).

[2] = target: T1, human GITR, membrane bound (on …); assay: FACS on PHA-activated human CD4+ and CD8+ T cells, anti-HA detection
From the text: as §1

[3] = target: T1, human GITR, membrane bound (on …); assay: FACS competition on activated human CD4+ T cells: pre-bound GITR-L titrated, then 28F3-hIgG1 at a fixed 0.5 ug/mL, detected with PE anti-human IgG Fc; unit from the axis
From the text: as §1

[4] = target: T1, human GITR, membrane bound (on …); assay: FACS (MFI, PE anti-HA tag) on PHA-activated human T cells, CD8 column; the table's row head reads IC50, the text calls it EC50; unit from the axis
From the text: as §1

[5] = target: T1, human GITR, membrane bound (on …); assay: FACS (MFI, PE anti-HA tag) on PHA-activated human T cells, CD4 column; the table's row head reads IC50, the text calls it EC50; unit from the axis
From the text: as §1

IC50 [1]: 0.0024 µg/mL | EC50 [2]: 0.016 µg/mL | IC50 [3]: 0.00244 µg/mL | EC50 [4]: 0.0163 µg/mL | EC50 [5]: 0.016 µg/mL
B1: recombinant hGITR-L trimer (R&D Systems #6987-GL) (ligand)
chain: LQLETAKEPCMAKFGPLPSKWQMASSEPPCVNKVSDWKLEILQNGLYLIYGQVAPNANYNDVAPFEVRLYKNKDMIQTLTNKSKIQNVGGTYELHVGDTIDLIFNSEHQVLKNNTYWGIILLANPQFIS
notes: Bought soluble trimer, detected through a hemagglutinin (HA) tag; also called GITR Ligand; rhGITR-L
